Here are results for one molecule from patent US20260250421A1 (BIOCYTOGEN PHARMACEUTICALS BEIJING, published 2026).

Assay [1] addresses T1, human PTK7 on human cancer cell lines (human, UniProt Q13308 31-1070).
T1 construct: Endogenous PTK7 of human tumour cell lines; also called PTK7 on A-431, NCI-H520, NCI-N87, SK-OV-3, BT-20, HCC1954, NCI-H226, NCI-H358, HCT116, PC-3, NCI-H292, NCI-H1975 cells
T1 sequence: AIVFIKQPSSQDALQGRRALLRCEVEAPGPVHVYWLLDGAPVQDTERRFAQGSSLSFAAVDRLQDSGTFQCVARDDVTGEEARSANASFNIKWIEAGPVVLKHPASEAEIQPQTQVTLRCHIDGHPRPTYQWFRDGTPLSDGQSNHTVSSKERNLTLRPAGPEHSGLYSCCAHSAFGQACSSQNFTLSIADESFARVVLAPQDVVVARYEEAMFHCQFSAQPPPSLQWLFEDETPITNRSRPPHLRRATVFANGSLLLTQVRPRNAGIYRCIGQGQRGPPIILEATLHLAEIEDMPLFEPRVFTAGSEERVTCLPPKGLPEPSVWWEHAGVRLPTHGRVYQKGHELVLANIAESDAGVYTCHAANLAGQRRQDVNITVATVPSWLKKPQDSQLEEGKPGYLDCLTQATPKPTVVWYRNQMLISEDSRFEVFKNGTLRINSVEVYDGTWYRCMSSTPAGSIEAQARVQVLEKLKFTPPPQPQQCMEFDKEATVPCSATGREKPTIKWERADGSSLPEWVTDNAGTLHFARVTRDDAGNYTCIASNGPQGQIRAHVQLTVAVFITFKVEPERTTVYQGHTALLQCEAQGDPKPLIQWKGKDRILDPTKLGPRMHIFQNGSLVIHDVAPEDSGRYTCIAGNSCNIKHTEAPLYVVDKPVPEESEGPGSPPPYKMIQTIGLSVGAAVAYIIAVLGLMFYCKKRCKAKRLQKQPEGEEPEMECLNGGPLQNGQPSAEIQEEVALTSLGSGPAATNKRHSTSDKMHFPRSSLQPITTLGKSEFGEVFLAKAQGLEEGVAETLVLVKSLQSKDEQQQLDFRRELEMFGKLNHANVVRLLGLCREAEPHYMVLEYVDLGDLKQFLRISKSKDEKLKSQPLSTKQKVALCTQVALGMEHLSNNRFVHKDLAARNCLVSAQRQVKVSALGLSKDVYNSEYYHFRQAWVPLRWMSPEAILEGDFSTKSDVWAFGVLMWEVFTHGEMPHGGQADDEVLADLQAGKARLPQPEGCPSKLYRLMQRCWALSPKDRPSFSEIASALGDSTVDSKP
Briefly: flow cytometry on NCI-H1975 cells co-expressing PTK7 and TROP2; the single curve of the bispecific is not resolved between the two targets; anti-hIgG-Fc Alexa Fluor 647 secondary antibody, MFI [A]. As for the experimental part: (§1) This experiment was performed to test the binding activities of the anti-PTK7/TROP2 bispecific antibodies to different tumor cell lines. NCI-H1975 cells or NUGC-4 cells were transferred to a 96-well plate at a density of 5×10⁴ cells/well respectively. The sample antibody was added to the 96-well plate, and incubated at 4° C. for 30 min.

Assay [2] addresses T2, TROP2 on NCI-H1975 and NUGC-4 tumor cells (UniProt P09758 27-323, limits assumed).
T2 construct: whole, on cells; species of the lines is not worded there; also called TROP2 on cells
T2 sequence (looked up): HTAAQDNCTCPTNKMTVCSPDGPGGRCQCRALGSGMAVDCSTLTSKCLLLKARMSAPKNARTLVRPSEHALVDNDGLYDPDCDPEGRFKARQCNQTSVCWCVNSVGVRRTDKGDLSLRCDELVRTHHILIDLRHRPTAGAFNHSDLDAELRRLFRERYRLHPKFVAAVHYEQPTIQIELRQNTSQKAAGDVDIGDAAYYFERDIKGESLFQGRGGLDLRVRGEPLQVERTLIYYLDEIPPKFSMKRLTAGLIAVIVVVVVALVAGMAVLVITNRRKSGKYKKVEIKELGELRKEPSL
Described as above. As for the experimental part:
as §1

B1: 3C4-18E9 (bispecific antibody, human IgG1, V domains shown)
VH 1: QVQLEQSRAEVKKPGESLRISCKGSGYSFTSYWISWVRQMPGKGLEWMGRIDPSDSYTNYNPSFQGHVTISADKSISTAYLQWSSLKASDTAMYYCARRDGSYFDFDYWGQGTLVTVSS
VH 2: QLQLQQSGPGLLKPSETLSLTCTVSGGSISSSYYFWGWIRQPPGKGLEWIGAIYYIGNTHYNPSLKSRVTISIDTSKNQFSLNLNSVTAADTAIYYCARYEDTWNWFDPWGQGTLVTVSS
VL: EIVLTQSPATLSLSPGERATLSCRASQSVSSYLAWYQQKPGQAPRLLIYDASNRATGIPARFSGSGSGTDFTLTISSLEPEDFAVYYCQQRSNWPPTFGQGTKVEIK
notes: which arm carries the knob is stated only for 3C4-6F7; also called anti-PTK7/TROP2 bispecific antibody 3C4-18E9
As to B1, the “EC50 (read off the curve)” value in assay [1] and in assay [2] was ~0.7 µg/mL in each case.
